The target in assay [1] is IA^b -Ea protein (membrane-bound IA^b with IEα^d peptide (56-73) joined by a linker to IAβ^b) (murine). Description: inferred from IL-2 production by BO.97.10 with M12.C3 cells and added cOVA peptide.
In assay [2] the target is IA^d -OVA protein (soluble IA^d αβ dimer with cOVA peptide (327-339) joined by a linker to IAβ^d) (murine).
For assay [3], the target named is IE^kd -MCC protein (soluble IE^kd αβ dimer with MCC peptide (91-103) joined by a linker to IEβ^k) (murine).
The target of assay [4] is IA^b protein (membrane-bound, without covalent peptide). Nature of the assay: inferred from IL-2 production by BO.97.10 with M12.C3 cells and added cOVA peptide.
Assay [5] has the same target. Nature of the assay: inferred from IL-2 production by BO.97.10 with fibroblasts and added cOVA peptide.
Assay [6] addresses IA^b -Ea protein bound by added cOVA peptide (murine; chicken) (UniProt P01012).
Assay [7] has the same target. This is another data set of the same source.

We go through four substances from patent publication US5820866.

Substance “cOVA Peptide (327-339) (from UniProt P01012)” registered a percent of the IA^b -Ea protein bound by cOVA peptide in assay [1] of 10%. With thrombin (enzyme), the digestion of the complex as assessed by SDS-PAGE in assay [2] and in assay [3] was greater than 80% throughout. As for IEα^d Peptide (56-73), in assay [4], the percent of the IA^b -Ea protein with IEα^d bound to the binding site amounted to 90%. Further, the percent of the IA^b -Ea protein bound by IEα^d peptide in assay [5] amounted to 90%. On to BO.97.10 T hybridoma cells (TCR), for which the IL-2 production in the presence of cOVA peptide (M12.C3 cells) (fold less IL-2 production) in assay [6] was found to be 10. The IL-2 production in the presence of cOVA peptide (fibroblasts) (fold less IL-2 production) in assay [7] is 10.
